Results as given in article doi:10.1101/2021.01.28.428602 (bioRxiv, 2021).
Where two headings read alike, the source gives them in different places.

Tests used:
[1] = target: rat α1β3γ2 GABAA receptor on HEK293T cells (Rattus norvegicus, UniProt P62813;P63079;P18508); experiment: flow cytometry on cells
[2] = target: α1β3γ2 GABAA receptor on COS7 cells (Rattus norvegicus (gamma-2 rat or …, UniProt P62813;P63079;P18508)); experiment: immunostaining of cells or tissue
[3] = target: T1, α4β3γ2 GABAA receptor on COS7 cells (Rattus norvegicus (gamma-2 rat or mouse …, UniProt P28471;P63079;P18508)); experiment: immunostaining of cells or tissue
[4] = target: T2, α3β3γ2 GABAA receptor on COS7 cells (Rattus norvegicus (gamma-2 rat or mouse …, UniProt P20236;P63079;P18508)); experiment: immunostaining of cells or tissue
[5] = target: GABAA receptor β3 subunit alone on COS7 cells (Rattus norvegicus (construct of ref. 7), UniProt P63079); experiment: immunostaining of cells or tissue
[6] = target: α1β2γ2 GABAA receptor on COS7 cells (Rattus norvegicus (gamma-2 rat or …, UniProt P62813;P63138;P18508)); experiment: immunostaining of cells or tissue
[7] = target: α1β3 GABAA receptor on COS7 cells (Rattus norvegicus (construct of ref. 7), UniProt P62813;P63079); experiment: immunostaining of cells or tissue
[8] = target: β3γ2 GABAA receptor subunits on COS7 cells (Rattus norvegicus (gamma-2 rat or …, UniProt P63079;P18508)); experiment: immunostaining of cells or tissue
[9] = target: T3, α5β3γ2 GABAA receptor on COS7 cells (Rattus norvegicus (gamma-2 rat or mouse …, UniProt P19969;P63079;P18508)); experiment: immunostaining of cells or tissue
[10] = target: GABAA receptor γ2 subunit alone on COS7 cells (Rattus norvegicus (rat or mouse …, UniProt P18508)); experiment: immunostaining of cells or tissue
[11] = target: T4, α2β3γ2 GABAA receptor on COS7 cells (Rattus norvegicus (gamma-2 rat or mouse …, UniProt P23576;P63079;P18508)); experiment: immunostaining of cells or tissue
[12] = target: rat α1β3 GABAA receptor on HEK293T cells (Rattus norvegicus, UniProt P62813;P63079); experiment: immunostaining of cells or tissue
[13] = target: T1, α4β3γ2 GABAA receptor on COS7 cells; experiment: immunostaining of cells or tissue; remark: listed apart in the source
[14] = target: T2, α3β3γ2 GABAA receptor on COS7 cells; experiment: immunostaining of cells or tissue; remark: listed apart in the source
[15] = target: T3, α5β3γ2 GABAA receptor on COS7 cells; experiment: immunostaining of cells or tissue; remark: listed apart in the source
[16] = target: T4, α2β3γ2 GABAA receptor on COS7 cells; experiment: immunostaining of cells or tissue; remark: listed apart in the source

Chain of GABAA receptor β3 subunit alone on COS7 cells (P63079 26-473): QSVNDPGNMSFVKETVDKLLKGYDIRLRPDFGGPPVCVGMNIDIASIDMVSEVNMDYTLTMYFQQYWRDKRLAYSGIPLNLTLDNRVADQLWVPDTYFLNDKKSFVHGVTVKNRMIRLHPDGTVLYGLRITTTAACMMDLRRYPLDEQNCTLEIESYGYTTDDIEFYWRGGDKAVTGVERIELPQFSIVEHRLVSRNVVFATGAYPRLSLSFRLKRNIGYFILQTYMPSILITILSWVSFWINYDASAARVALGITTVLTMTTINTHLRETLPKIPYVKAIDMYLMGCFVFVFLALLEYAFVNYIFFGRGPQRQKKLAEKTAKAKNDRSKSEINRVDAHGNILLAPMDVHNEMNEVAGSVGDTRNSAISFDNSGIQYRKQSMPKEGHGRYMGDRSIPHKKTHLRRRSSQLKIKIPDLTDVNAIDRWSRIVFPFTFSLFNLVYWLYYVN
T3 sequence (P19969 26-464, chain 1 of 3): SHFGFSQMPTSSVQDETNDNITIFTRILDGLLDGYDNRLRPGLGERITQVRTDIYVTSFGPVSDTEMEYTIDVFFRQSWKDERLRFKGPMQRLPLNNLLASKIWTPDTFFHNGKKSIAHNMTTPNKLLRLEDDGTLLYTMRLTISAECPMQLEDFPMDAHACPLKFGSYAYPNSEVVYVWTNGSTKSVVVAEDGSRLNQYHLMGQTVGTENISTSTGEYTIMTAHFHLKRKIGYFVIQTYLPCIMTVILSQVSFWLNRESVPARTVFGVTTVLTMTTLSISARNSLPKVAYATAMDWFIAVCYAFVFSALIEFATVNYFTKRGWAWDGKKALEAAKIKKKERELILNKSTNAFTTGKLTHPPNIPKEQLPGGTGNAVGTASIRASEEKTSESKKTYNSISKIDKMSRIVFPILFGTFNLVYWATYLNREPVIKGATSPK
T3 sequence (P63079 26-473, chain 2 of 3): as the sequence (P63079 26-473) above
T3 sequence (P18508 39-466, chain 3 of 3): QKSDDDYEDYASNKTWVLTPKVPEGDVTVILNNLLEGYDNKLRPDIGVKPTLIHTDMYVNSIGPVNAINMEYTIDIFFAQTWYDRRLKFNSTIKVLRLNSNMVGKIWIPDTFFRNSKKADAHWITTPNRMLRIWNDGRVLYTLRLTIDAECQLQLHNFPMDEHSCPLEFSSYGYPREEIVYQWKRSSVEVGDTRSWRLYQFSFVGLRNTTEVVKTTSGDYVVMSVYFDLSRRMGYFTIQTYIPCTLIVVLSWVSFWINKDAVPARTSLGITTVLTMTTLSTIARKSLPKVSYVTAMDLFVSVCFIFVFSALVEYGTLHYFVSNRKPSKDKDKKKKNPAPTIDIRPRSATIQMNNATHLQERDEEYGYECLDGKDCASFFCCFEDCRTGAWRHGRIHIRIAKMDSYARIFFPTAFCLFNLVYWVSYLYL
T4 sequence (P23576 29-451, chain 1 of 3): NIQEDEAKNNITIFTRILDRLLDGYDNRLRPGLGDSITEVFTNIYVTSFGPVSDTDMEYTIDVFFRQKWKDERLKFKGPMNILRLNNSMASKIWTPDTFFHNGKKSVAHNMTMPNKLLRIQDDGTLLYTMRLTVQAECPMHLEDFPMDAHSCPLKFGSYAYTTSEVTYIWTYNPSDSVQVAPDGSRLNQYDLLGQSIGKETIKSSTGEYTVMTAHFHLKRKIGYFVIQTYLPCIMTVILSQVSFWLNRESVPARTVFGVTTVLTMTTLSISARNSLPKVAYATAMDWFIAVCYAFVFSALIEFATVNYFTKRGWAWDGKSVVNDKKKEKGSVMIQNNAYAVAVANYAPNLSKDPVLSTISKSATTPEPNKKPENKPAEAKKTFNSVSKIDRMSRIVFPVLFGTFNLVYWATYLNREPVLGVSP
T4 sequence (P63079 26-473, chain 2 of 3): as the sequence (P63079 26-473) above
T4 sequence (P18508 39-466, chain 3 of 3): as the sequence (P18508 39-466, chain 3 of 3) above
Chain of GABAA receptor γ2 subunit alone on COS7 cells (Rattus norvegicus (P18508 39-466): as the sequence (P18508 39-466, chain 3 of 3) above
T2 sequence (P20236 29-493, chain 1 of 3): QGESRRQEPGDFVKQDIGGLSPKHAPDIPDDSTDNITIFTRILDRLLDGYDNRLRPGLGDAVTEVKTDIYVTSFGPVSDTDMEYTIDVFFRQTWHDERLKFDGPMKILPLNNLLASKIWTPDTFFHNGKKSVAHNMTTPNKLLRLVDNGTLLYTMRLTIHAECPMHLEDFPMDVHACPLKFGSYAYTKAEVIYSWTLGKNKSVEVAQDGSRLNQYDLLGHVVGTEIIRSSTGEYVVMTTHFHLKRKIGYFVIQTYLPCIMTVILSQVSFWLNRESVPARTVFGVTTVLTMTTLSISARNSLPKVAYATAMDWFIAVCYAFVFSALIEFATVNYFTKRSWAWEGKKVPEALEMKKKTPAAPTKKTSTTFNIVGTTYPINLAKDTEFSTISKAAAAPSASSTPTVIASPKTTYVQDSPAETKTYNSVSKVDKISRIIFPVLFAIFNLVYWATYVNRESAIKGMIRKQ
T2 sequence (P63079 26-473, chain 2 of 3): as the sequence (P63079 26-473) above
T2 sequence (P18508 39-466, chain 3 of 3): as the sequence (P18508 39-466, chain 3 of 3) above

B1: human monoclonal GABAAR antibody #113-175 (antibody, V domains shown)
VH: EVQLLESGEGLVQPGGSLRLSCAASGFTFKTYAMSWVRQAPGKGLEWVSAISGSGASTYYADFVEGRFTISRDNSKNTLYLQMNSLRAEDTAVYYCAKEPPAMVWFGGGYFDYWGQGTLVTVSS
VL: EIVLTQSPATLSLSPGERATLSCRASQSVSSYLAWYQQKPGQAPRLLIYDASNRATGIPARFSGSGSGTDFTLTISSLEPEDFAVYYCQQRSNWPPYSFGQGTKLEIK
Which results are given for B1?
binding result [1]: binds; binding result [2]: binds; binding result [3]: no binding (tested: 5 μg/ml); binding result [4]: no binding (tested: 5 μg/ml); binding result [5]: no binding (tested: 5 μg/ml); binding result [6]: binds; binding result [7]: no binding (tested: 5 μg/ml); binding result [8]: no binding (tested: 5 μg/ml); binding result [9]: no binding (tested: 5 μg/ml); binding result [10]: no binding (tested: 5 μg/ml); binding result [11]: no binding (tested: 5 μg/ml)

B2: human monoclonal GABAAR antibody #113-115 (antibody, V domains shown)
VH: QVQLVQSGAEVKKPGASVKVSCKASGYTFISYDINWVRQATGQGLEWMGGMDPKSGNTGYAQKFQGRVTMTTNTAISTAYMELSSLRSEDTAVYYCVRGEQSYDRTGYSDWFDPWGQGTLVTVSS
VL: not shown
Which results are given for B2?
binding result [12]: binds; binding result [13]: no binding; binding result [14]: no binding; binding result [15]: no binding; binding result [16]: no binding; binding result [1]: binds; binding result [2]: binds; binding result [5]: no binding (tested: 5 μg/ml); binding result [7]: binds; binding result [10]: no binding (tested: 5 μg/ml)
